Data as given in patent US20240327542A1 (published 2024).

B1: AMRA3-18 hIgG1 (antibody, V domains shown)
VH: EVQLVESGGGLVQPGGSLRLSCAASGFTVSYSSIHWVRQAPGKGLEWVASISSSSGYTSYADSVKGRFTISADTSKNTAYLQMNSLRAEDTAVYYCARYAWWAHGLDYWGQGTLVTVSS
VL: DIQMTQSPSSLSASVGDRVTITCRASQSVSSAVAWYQQKPGKAPKLLIYSASSLYSGVPSRFSGSRSGTDFTLTISSLQPEDFATYYCQQGSYTYRLITFGQGTKVEIKR
B2: AMRA11-2 hIgG1 (antibody, V domains shown)
VH: EVQLVESGGGLVQPGGSLRLSCAASGFTISSSSIHWVRQAPGKGLEWVASISSYSSSTYYADSVKGRFTISADTSKNTAYLQMNSLRAEDTAVYYCARYPYGWGWGGSGLDYWGQGTLVTVSS
VL: DIQMTQSPSSLSASVGDRVTITCRASQSVSSAVAWYQQKPGKAPKLLIYSASSLYSGVPSRFSGSRSGTDFTLTISSLQPEDFATYYCQQSSSSLITFGQGTKVEIKR
B3: AMRA3-7 hIgG1 (antibody, V domains shown)
VH: EVQLVESGGGLVQPGGSLRLSCAASGFTFSSYSIHWVRQAPGKGLEWVASIYSSYGYTSYADSVKGRFTISADTSKNTAYLQMNSLRAEDTAVYYCARGGWYPAMDYWGQGTLVTVSS
VL: DIQMTQSPSSLSASVGDRVTITCRASQSVSSAVAWYQQKPGKAPKLLIYSASSLYSGVPSRFSGSRSGTDFTLTISSLQPEDFATYYCQQISYVYSLITFGQGTKVEIKR

Each binder was assayed against RAS-AMG510 (human;) (assay: cell binding (Raji), flow cytometry; apparent KD).
Chain of RAS-AMG510 (human;) (P61769 whole entry): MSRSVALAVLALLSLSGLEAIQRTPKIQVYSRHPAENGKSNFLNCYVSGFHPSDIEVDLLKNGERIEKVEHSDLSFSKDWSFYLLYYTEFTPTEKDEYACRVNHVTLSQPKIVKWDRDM

In order of falling Kd:
1. B1  57 nM
2. B2  45 nM
3. B3  20 nM
